# Data published in the supplement of paper PMC10567573.
# B1: RAB40B (parent)
# chain: YSLTTSSTHKRSSLRKVKLVRPPQ
# B2: APBB1IP (parent)
# chain: PPEPLSQVSMWDQRWQDHQPLLPI
# Variants of: B1
# Assay: protein stability index of a GFP-peptide fusion (GPS, HEK-293T) (PSI 1-6); higher = more stable
# Settings: c terminus: a fixed tail appended
# 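Further: lentivirally expressed fusions sorted by FACS into six bins by GFP to DsRed ratio, PSI derived from sequencing read proportions per bin multiplied by bin number.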
row,Variant,protein stability index
1,YSLTTSSTHKRSSLRKVMLVRPPQ,2.22
2,YSLTTSSTHKRSSLRKVNLVRPPQ,2.98
3,YSLTTSSTHKRSSLRKVPLVRPPQ,3.47
4,YSLTTSSTHKRSSLRKVQLVRPPQ,3.09
5,YSLTTSSTHKRSSLRKVRLVRPPQ,2.38
6,YSLTTSSTHKRSSLRKVSLVRPPQ,3.06
7,YSLTTSSTHKRSSLRKVTLVRPPQ,2.81
8,YSLTTSSTHKRSSLRKVVLVRPPQ,2.68
9,YSLTTSSTHKRSSLRKVWLVRPPQ,2.32
10,YSLTTSSTHKRSSLRKVYLVRPPQ,2.05
11,YSLTTSSTHKRSSLRKVKAVRPPQ,4.17
12,YSLTTSSTHKRSSLRKVKCVRPPQ,3.37
13,YSLTTSSTHKRSSLRKVKDVRPPQ,3.71
14,YSLTTSSTHKRSSLRKVKEVRPPQ,3.04
15,YSLTTSSTHKRSSLRKVKFVRPPQ,3.1
16,YSLTTSSTHKRSSLRKVKGVRPPQ,3.7
17,YSLTTSSTHKRSSLRKVKHVRPPQ,3.33
18,YSLTTSSTHKRSSLRKVKIVRPPQ,2.9
19,YSLTTSSTHKRSSLRKVKKVRPPQ,4.09
20,YSLTTSSTHKRSSLRKVKMVRPPQ,3.13
21,YSLTTSSTHKRSSLRKVKNVRPPQ,3.39
22,YSLTTSSTHKRSSLRKVKPVRPPQ,3.63
23,YSLTTSSTHKRSSLRKVKQVRPPQ,2.33
24,YSLTTSSTHKRSSLRKVKRVRPPQ,3.18
25,YSLTTSSTHKRSSLRKVKSVRPPQ,3.45

row,Variant,protein stability index
1,YSLTTSSTHKRSSLRKVKTVRPPQ,3.25
2,YSLTTSSTHKRSSLRKVKVVRPPQ,3.19
3,YSLTTSSTHKRSSLRKVKWVRPPQ,3.15
4,YSLTTSSTHKRSSLRKVKYVRPPQ,2.81
5,YSLTTSSTHKRSSLRKVKLARPPQ,3.54
6,YSLTTSSTHKRSSLRKVKLCRPPQ,3.25
7,YSLTTSSTHKRSSLRKVKLDRPPQ,3.66
8,YSLTTSSTHKRSSLRKVKLERPPQ,3.56
9,YSLTTSSTHKRSSLRKVKLFRPPQ,2.67
10,YSLTTSSTHKRSSLRKVKLGRPPQ,2.71
11,YSLTTSSTHKRSSLRKVKLHRPPQ,2.92
12,YSLTTSSTHKRSSLRKVKLIRPPQ,2.48
13,YSLTTSSTHKRSSLRKVKLKRPPQ,3.7
14,YSLTTSSTHKRSSLRKVKLLRPPQ,2.71
15,YSLTTSSTHKRSSLRKVKLMRPPQ,2.79
16,YSLTTSSTHKRSSLRKVKLNRPPQ,2.85
17,YSLTTSSTHKRSSLRKVKLPRPPQ,3.56
18,YSLTTSSTHKRSSLRKVKLQRPPQ,3.09
19,YSLTTSSTHKRSSLRKVKLRRPPQ,3.09
20,YSLTTSSTHKRSSLRKVKLSRPPQ,3.35
21,YSLTTSSTHKRSSLRKVKLTRPPQ,3.25
22,YSLTTSSTHKRSSLRKVKLWRPPQ,2.22
23,YSLTTSSTHKRSSLRKVKLYRPPQ,2.85
24,YSLTTSSTHKRSSLRKVKLVAPPQ,3.15
25,YSLTTSSTHKRSSLRKVKLVCPPQ,2.91

row,Variant,protein stability index
1,YSLTTSSTHKRSSLRKVKLVDPPQ,3.19
2,YSLTTSSTHKRSSLRKVKLVEPPQ,3.41
3,YSLTTSSTHKRSSLRKVKLVFPPQ,2.17
4,YSLTTSSTHKRSSLRKVKLVGPPQ,3.62
5,YSLTTSSTHKRSSLRKVKLVHPPQ,2.9
6,YSLTTSSTHKRSSLRKVKLVIPPQ,2.52
7,YSLTTSSTHKRSSLRKVKLVKPPQ,3.55
8,YSLTTSSTHKRSSLRKVKLVLPPQ,3.61
9,YSLTTSSTHKRSSLRKVKLVMPPQ,2.51
10,YSLTTSSTHKRSSLRKVKLVNPPQ,2.92
11,YSLTTSSTHKRSSLRKVKLVPPPQ,2.89
12,YSLTTSSTHKRSSLRKVKLVQPPQ,2.95
13,YSLTTSSTHKRSSLRKVKLVSPPQ,3.09
14,YSLTTSSTHKRSSLRKVKLVTPPQ,2.76
15,YSLTTSSTHKRSSLRKVKLVVPPQ,2.53
16,YSLTTSSTHKRSSLRKVKLVWPPQ,2.25
17,YSLTTSSTHKRSSLRKVKLVYPPQ,2.4
18,YSLTTSSTHKRSSLRKVKLVRAPQ,2.76
19,YSLTTSSTHKRSSLRKVKLVRCPQ,3.61
20,YSLTTSSTHKRSSLRKVKLVRDPQ,3.39
21,YSLTTSSTHKRSSLRKVKLVREPQ,3.5
22,YSLTTSSTHKRSSLRKVKLVRFPQ,2.44
23,YSLTTSSTHKRSSLRKVKLVRGPQ,2.44
24,YSLTTSSTHKRSSLRKVKLVRHPQ,2.49
25,YSLTTSSTHKRSSLRKVKLVRIPQ,2.27

row,Variant,protein stability index
1,YSLTTSSTHKRSSLRKVKLVRKPQ,3.28
2,YSLTTSSTHKRSSLRKVKLVRLPQ,2.58
3,YSLTTSSTHKRSSLRKVKLVRMPQ,2.76
4,YSLTTSSTHKRSSLRKVKLVRNPQ,3.72
5,YSLTTSSTHKRSSLRKVKLVRQPQ,3.39
6,YSLTTSSTHKRSSLRKVKLVRRPQ,3
7,YSLTTSSTHKRSSLRKVKLVRSPQ,3.13
8,YSLTTSSTHKRSSLRKVKLVRTPQ,3.32
9,YSLTTSSTHKRSSLRKVKLVRVPQ,2.48
10,YSLTTSSTHKRSSLRKVKLVRWPQ,1.94
11,YSLTTSSTHKRSSLRKVKLVRYPQ,2.84
12,YSLTTSSTHKRSSLRKVKLVRPAQ,3.37
13,YSLTTSSTHKRSSLRKVKLVRPCQ,2.73
14,YSLTTSSTHKRSSLRKVKLVRPDQ,3.2
15,YSLTTSSTHKRSSLRKVKLVRPEQ,3.1
16,YSLTTSSTHKRSSLRKVKLVRPFQ,2.6
17,YSLTTSSTHKRSSLRKVKLVRPGQ,2.69
18,YSLTTSSTHKRSSLRKVKLVRPHQ,3.01
19,YSLTTSSTHKRSSLRKVKLVRPIQ,2.82
20,YSLTTSSTHKRSSLRKVKLVRPKQ,3.25
21,YSLTTSSTHKRSSLRKVKLVRPLQ,2.3
22,YSLTTSSTHKRSSLRKVKLVRPMQ,2.8
23,YSLTTSSTHKRSSLRKVKLVRPNQ,2.96
24,YSLTTSSTHKRSSLRKVKLVRPQQ,3.08
25,YSLTTSSTHKRSSLRKVKLVRPRQ,3.33

row,Variant,protein stability index
1,YSLTTSSTHKRSSLRKVKLVRPSQ,3.25
2,YSLTTSSTHKRSSLRKVKLVRPTQ,3.62
3,YSLTTSSTHKRSSLRKVKLVRPVQ,3.02
4,YSLTTSSTHKRSSLRKVKLVRPWQ,2.04
5,YSLTTSSTHKRSSLRKVKLVRPYQ,3.79
6,YSLTTSSTHKRSSLRKVKLVRPPA,2.53
7,YSLTTSSTHKRSSLRKVKLVRPPC,2.45
8,YSLTTSSTHKRSSLRKVKLVRPPD,3.42
9,YSLTTSSTHKRSSLRKVKLVRPPE,3.06
10,YSLTTSSTHKRSSLRKVKLVRPPF,2.53
11,YSLTTSSTHKRSSLRKVKLVRPPG,2.82
12,YSLTTSSTHKRSSLRKVKLVRPPH,3.12
13,YSLTTSSTHKRSSLRKVKLVRPPI,2.22
14,YSLTTSSTHKRSSLRKVKLVRPPK,2.75
15,YSLTTSSTHKRSSLRKVKLVRPPL,2.86
16,YSLTTSSTHKRSSLRKVKLVRPPM,2.49
17,YSLTTSSTHKRSSLRKVKLVRPPN,2.96
18,YSLTTSSTHKRSSLRKVKLVRPPP,3.21
19,YSLTTSSTHKRSSLRKVKLVRPPR,2.62
20,YSLTTSSTHKRSSLRKVKLVRPPS,2.76
21,YSLTTSSTHKRSSLRKVKLVRPPT,3
22,YSLTTSSTHKRSSLRKVKLVRPPV,2.31
23,YSLTTSSTHKRSSLRKVKLVRPPW,2.68
24,YSLTTSSTHKRSSLRKVKLVRPPY,3.09

# Variants of: B2
# Assay: as above
# Settings: c terminus: a fixed tail appended
row,Variant,protein stability index
1,APEPLSQVSMWDQRWQDHQPLLPI,2.64
2,CPEPLSQVSMWDQRWQDHQPLLPI,2.34
3,DPEPLSQVSMWDQRWQDHQPLLPI,3.31
4,EPEPLSQVSMWDQRWQDHQPLLPI,2.84
5,FPEPLSQVSMWDQRWQDHQPLLPI,2.17
6,GPEPLSQVSMWDQRWQDHQPLLPI,1.94
7,HPEPLSQVSMWDQRWQDHQPLLPI,3.07
8,IPEPLSQVSMWDQRWQDHQPLLPI,2.39
9,KPEPLSQVSMWDQRWQDHQPLLPI,2.73
10,LPEPLSQVSMWDQRWQDHQPLLPI,2.02
11,MPEPLSQVSMWDQRWQDHQPLLPI,3.28
12,NPEPLSQVSMWDQRWQDHQPLLPI,2.87
13,QPEPLSQVSMWDQRWQDHQPLLPI,2.89
14,RPEPLSQVSMWDQRWQDHQPLLPI,2.54
15,SPEPLSQVSMWDQRWQDHQPLLPI,2.87
16,TPEPLSQVSMWDQRWQDHQPLLPI,3.37
17,VPEPLSQVSMWDQRWQDHQPLLPI,2.23
18,WPEPLSQVSMWDQRWQDHQPLLPI,2.48
19,YPEPLSQVSMWDQRWQDHQPLLPI,1.72
20,PAEPLSQVSMWDQRWQDHQPLLPI,2.71
21,PCEPLSQVSMWDQRWQDHQPLLPI,2.44
22,PDEPLSQVSMWDQRWQDHQPLLPI,2.95

row,Variant,protein stability index
1,PEEPLSQVSMWDQRWQDHQPLLPI,3.02
2,PFEPLSQVSMWDQRWQDHQPLLPI,1.92
3,PGEPLSQVSMWDQRWQDHQPLLPI,2.58
4,PHEPLSQVSMWDQRWQDHQPLLPI,2.65
5,PIEPLSQVSMWDQRWQDHQPLLPI,2.42
6,PKEPLSQVSMWDQRWQDHQPLLPI,2.83
7,PLEPLSQVSMWDQRWQDHQPLLPI,2.09
8,PMEPLSQVSMWDQRWQDHQPLLPI,2.38
9,PNEPLSQVSMWDQRWQDHQPLLPI,3.09
10,PQEPLSQVSMWDQRWQDHQPLLPI,2.52
11,PREPLSQVSMWDQRWQDHQPLLPI,2.5
12,PSEPLSQVSMWDQRWQDHQPLLPI,2.83
13,PTEPLSQVSMWDQRWQDHQPLLPI,2.69
14,PVEPLSQVSMWDQRWQDHQPLLPI,3.11
15,PWEPLSQVSMWDQRWQDHQPLLPI,2.07
16,PYEPLSQVSMWDQRWQDHQPLLPI,2.46
17,PPAPLSQVSMWDQRWQDHQPLLPI,2.87
18,PPCPLSQVSMWDQRWQDHQPLLPI,2.48
19,PPDPLSQVSMWDQRWQDHQPLLPI,3.34
20,PPFPLSQVSMWDQRWQDHQPLLPI,2.4
21,PPGPLSQVSMWDQRWQDHQPLLPI,3.06
22,PPHPLSQVSMWDQRWQDHQPLLPI,2.74

row,Variant,protein stability index
1,PPIPLSQVSMWDQRWQDHQPLLPI,2.48
2,PPKPLSQVSMWDQRWQDHQPLLPI,3.84
3,PPLPLSQVSMWDQRWQDHQPLLPI,3.07
4,PPMPLSQVSMWDQRWQDHQPLLPI,2.94
5,PPNPLSQVSMWDQRWQDHQPLLPI,3.56
6,PPQPLSQVSMWDQRWQDHQPLLPI,2.77
7,PPRPLSQVSMWDQRWQDHQPLLPI,3.18
8,PPSPLSQVSMWDQRWQDHQPLLPI,3.01
9,PPVPLSQVSMWDQRWQDHQPLLPI,3.46
10,PPWPLSQVSMWDQRWQDHQPLLPI,2.32
11,PPYPLSQVSMWDQRWQDHQPLLPI,2.27
12,PPEALSQVSMWDQRWQDHQPLLPI,3.05
13,PPECLSQVSMWDQRWQDHQPLLPI,2.51
14,PPEDLSQVSMWDQRWQDHQPLLPI,3.56
15,PPEELSQVSMWDQRWQDHQPLLPI,3.34
16,PPEFLSQVSMWDQRWQDHQPLLPI,2.44
17,PPEGLSQVSMWDQRWQDHQPLLPI,2.79
18,PPEHLSQVSMWDQRWQDHQPLLPI,3.22
19,PPEILSQVSMWDQRWQDHQPLLPI,2.52
20,PPEKLSQVSMWDQRWQDHQPLLPI,2.55
